Reference: patent US20250387465A1

Legend:
[1] = molecular target: ferritin-PreF fusion protein RSV-PreF-C-NP (respiratory syncytial virus (Pre-F part); species of the ferritin not stated); assay: ELISA, fusion protein coated, F protein antibody 1:1500 as primary; protein kept 1 h at pH 7.4, 25 C (untreated reference); mean of 10- to 10000-fold dilutions
[2] = molecular target: ferritin-PreF fusion protein RSV-PreF-C-NP (respiratory syncytial virus (Pre-F part); species of the ferritin not stated); assay: ELISA, fusion protein coated, F protein antibody 1:1500 as primary; protein kept 1 h at pH 10, 25 C; against untreated protein; mean of 10- to 10000-fold dilutions
[3] = molecular target: ferritin-PreF fusion protein RSV-PreF-H-NP (respiratory syncytial virus (Pre-F part); species of the ferritin not stated); assay: ELISA with F protein antibody after 1 h at pH 3.8, pH 10, 50 C or 70 C
[4] = molecular target: ferritin-PreF fusion protein RSV-PreF-B-NP (respiratory syncytial virus (Pre-F part); species of the ferritin not stated); assay: as above
[5] = molecular target: ferritin-PreF fusion protein RSV-PreF-A-NP (respiratory syncytial virus (Pre-F part); species of the ferritin not stated); assay: as above
[6] = molecular target: ferritin-PreF fusion protein RSV-PreF-F-NP (respiratory syncytial virus (Pre-F part); species of the ferritin not stated); assay: as above
[7] = molecular target: ferritin-PreF fusion protein RSV-PreF-G-NP (respiratory syncytial virus (Pre-F part); species of the ferritin not stated); assay: as above
[8] = molecular target: ferritin-PreF fusion protein RSV-PreF-D-NP (respiratory syncytial virus (Pre-F part); species of the ferritin not stated); assay: as above
[9] = molecular target: ferritin-PreF fusion protein RSV-PreF-E-NP (respiratory syncytial virus (Pre-F part); species of the ferritin not stated); assay: as above
[10] = molecular target: ferritin-PreF fusion protein RSV-PreF-C-NP (respiratory syncytial virus (Pre-F part); species of the ferritin not stated); assay: as above
[11] = molecular target: ferritin-PreF fusion protein RSV-PreF-C-NP (respiratory syncytial virus (Pre-F part); species of the ferritin not stated); assay: ELISA, fusion protein coated, F protein antibody 1:1500 as primary; protein kept 1 h at 70 C, pH 7.4; against untreated protein; mean of 10- to 10000-fold dilutions
[12] = molecular target: ferritin-PreF fusion protein RSV-PreF-C-NP (respiratory syncytial virus (Pre-F part); species of the ferritin not stated); assay: ELISA, fusion protein coated, F protein antibody 1:1500 as primary; protein kept 1 h at 50 C, pH 7.4; against untreated protein; mean of 10- to 10000-fold dilutions
[13] = molecular target: ferritin-PreF fusion protein RSV-PreF-C-NP (respiratory syncytial virus (Pre-F part); species of the ferritin not stated); assay: ELISA, fusion protein coated, F protein antibody 1:1500 as primary; protein kept 1 h at pH 3.8, 25 C; against untreated protein; mean of 10- to 10000-fold dilutions

## F protein antibody (PujianBiotech (Wuhan), Cat #62814)
[1]
  Percentage of ELISA Signal Intensity Retained After Physical Stress Challenges: 100%
[2]
  Percentage of ELISA Signal Intensity Retained After Physical Stress Challenges: 83.6%
[3]
  antigen-binding activity retained against the original untreated protein: > 75%
[4]
  antigen-binding activity retained against the original untreated protein: > 75%
[5]
  antigen-binding activity retained against the original untreated protein: > 75%
[6]
  antigen-binding activity retained against the original untreated protein: > 75%
[7]
  antigen-binding activity retained against the original untreated protein: > 75%
[8]
  antigen-binding activity retained against the original untreated protein: > 75%
[9]
  antigen-binding activity retained against the original untreated protein: > 75%
[10]
  antigen-binding activity retained against the original untreated protein: > 75%
[11]
  Percentage of ELISA Signal Intensity Retained After Physical Stress Challenges: 77.1%
[12]
  Percentage of ELISA Signal Intensity Retained After Physical Stress Challenges: 91.2%
[13]
  Percentage of ELISA Signal Intensity Retained After Physical Stress Challenges: 77.3%
